In patent US20020150566:

Target: HA-Ras (wild-type) (UniProt P01112)
Sequence of UniProt P01112 (P01112 whole entry, looked up): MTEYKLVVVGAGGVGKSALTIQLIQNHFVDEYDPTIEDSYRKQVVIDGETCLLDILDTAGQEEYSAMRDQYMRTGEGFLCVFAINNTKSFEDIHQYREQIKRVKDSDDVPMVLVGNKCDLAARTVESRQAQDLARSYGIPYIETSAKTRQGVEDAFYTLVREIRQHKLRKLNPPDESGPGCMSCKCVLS

Flag-SOS
amount of GTP-bound HA-Ras (32-PO4 labeling, a-HA immunoprecipitation, TLC): expression of Flag-SOS significantly increased the amount of GTP-bound HA-Ras
